# Measured values taken from the DeepSol protein solubility set.
# Test: soluble on expression in E. coli; label from the status in PepcDB or PDB records
row,Sequence,soluble on expression in E. coli
1,MSLTSNIFSGCMPALMTPCKADRSPDFDALVKKGKELIEAGMSAVVYCGSMGDWPLLTDEQRMEGVERLVKAGVPVVVGTGAVNTRVAVAHAAHAAKVGARGLMVIPRVLSRGSSVSAQRNHFSDILKAAPSLPAVIYNSPYYGFATRADLFFDLRREFPNLIGFKEFGGLADLRYAAENITSQDDQVTLMVGVDTAVYHGFVNCGATGAITGIGNALPKEVLHLVALCQKAAEGHAEARLRARELEEALAVLSSFDEGSDLVLYYKHLMVLNGEDEYRLHFNETDALSDAQRNYAEAQYELFRTWYADWSTKGEGHHHHHH,soluble
2,MSLTTLHFSGFPRVGAFRELKFAQEKYWRKEISEQELLAVAKDLREKNWKHQVAANADFVAVGDFTFYDHILDLQVATGAIPARFGFDSQNLSLEQFFQLARGNKDQFAIEMTKWFDTNYHYLVPEFHADTEFKANAKHYVQQLQEAQALGLKAKPTVVGPLTFLWVGKEKGAVEFDRLSLLPKLLPVYVEILTALVEAGAEWIQIDEPALAVDLPKEWVEAYKDVYATLSKVSAKILLSTYFGSVAEHAALLKALPVDGLHIDLVRAPEQLDAFADYDKVLSAGVIDGRNIWRANLNKVLETVEPLQAKLGDRLWISSSCSLLHTPFDLSVEEKLKANKPDLYSWLAFTLQKTQELRVLKAALNEGRDSVAEELAASQAAADSRANSSEIHRADVAKRLADLPANADQRKSPFADRIKAQQAWLNLPLLPTTNIGSFPQTTEIRQARSAFKKGELSAADYEAAMKKEIALVVEEQEKLDLDVLVHGEAERNDMVEYFGELLSGFAFTQYGWVQSYGSRCVKPPIIFGDVSRPEAMTVAWSTYAQSLTKRPMKGMLTGPVTILQWSFVRNDIPRSTVCKQIALALNDEVLDLEKAGIKVIQIDEPAIREGLPLKRADWDAYLNWAGESFRLSSAGCEDSTQIHTHMCYSEFNDILPAIAAMDADVITIETSRSDMELLTAFGEFQYPNDIGPGVYDIHSPRVPTEAEVEHLLRKAIEVVPVERLWVNPDCGLKTRGWKETLEQLQVMMNVTRKLRAELAKEGHHHHHH,not soluble
3,MSLTTRRDFIKKTVAGTAALSLGSIIPGFGSNSYQEILGANEKIRIGVIGVNSRGNALAQGFAKMKGCEVTYLCDVDSRALERCQADIHKISGRTPKGEKDIRKMLESDDFEAVVIATPDHWHGKAAIMAMQAGKHVYLEKPTSHNPAENEMLVRATLKYNRIVQVGNQRRSWPNVIKAIEEIKSGAIGKVRYAKSWYVNNRPSIGTGKVVPVPDYLDWDLWQGPAPRVPNFKDNYIHYNWHWFWNWGTGEALNNGTHFVDILRWGLGVDYPTKVDSVGGRYRFQDDWQTPDTQLITFQFGDEASCSWEGRSCNSTPVDGYGVGTAFYGETGTLFISGGNEYKITDLQGKVIKDVKSNLKFETGNLLNPSEKLDAYHFENWFDAIRKGGKLNSGIVDACISTQLVQLGNIAQRVGHSLDIDPGSGRILNDLEANKLWGREYEKGWEIREGHHHHHH,soluble
4,MSLVDLDLTQIQKDILYALITLYKKKSGGSVKGEEIAELINRNPGTVRNQMQALRALGLVEGVPGPKGGYRPTSKAYELLSVTRPEESVVVPVVVNGNVMEELSAEEIVLPSISNPNICQARIRIIGDIKKINPGDSVIVGPTPVNEMMVYGKVVGRDDTENTIVLDIEKIVALPKDTVGEHMSSPIISVDAEESVVNAAKVLAENGIYCTPVQKNGKFVGIFTLDHVAKAVAEGKLNAKVEEVMRPKLVMVEKDTKIGEALRLMRDEKVRILLVTDKGEPVGVITDQKILTRLAPEQVETEGHHHHHH,soluble
5,MSLVEMKFLTDRMLGRLTRWLRISGYDTVSVSELEFDEEEDEFMLRNLRDRILLTKDRELYRKSVKEGRKAILIRSDSLEGQMRELMERGVKFQIVMDRCSLCNTPLRKPSREEAMEVIEREKLSEDMLEFELWYCEKCRKLYWMGGHWKNMTRFLRKFESEGHHHHHH,soluble
6,MSLVKIVDVAKAANVSPAVVSRILSNDSKLVVREETRARVQQAIEALGYTPNLQARGLRLSRSNTLAMIVPELNSPVFPVIIQGAQRAAWERGYSLLVGGMGGEEEDPKVAGRLLRSNRIDGLLVTTGRHEAQMLQELATLNAPFVLVNRYLDDQHPYVELDERGAAAAITRHFIELGHRRIAFLGGLQRRVGERRVAGYADALAEAGLPWVPQLVVDAGYYKPGGEDGLRQLLALDEPPTAVVATNEIVAAGAMAAAHRQGVRIPRDLSIASFSDGIVAELLSPALTAVRFPLERMGYLATAMLVDIVEGRGAPQAGLCLPHESVVVRDSTARPPGRKARAATREGHHHHHH,not soluble
